Measured values: patent US20170369592A1, “NOVEL ANTI-FIBROBLAST ACTIVATION PROTEIN (FAP) ANTIBODIES AND USES DERIVED THEREOF” (Mabimmune Diagnostics AG, priority 2015, published 2017)

Columns and labels:
[1] = target: T1, recombinant human FAP (rhFAP) (Homo sapiens, UniProt Q12884); experiment: Affinity (EC50) sandwich ELISA on SB9 oligopeptidase family; format: binding; settings: HRP-labelled antibody 0.004-400 nM
T1 construct: purchased Sino Biologicals 10464-H07H
T1 sequence (Q12884 26-760 limits assumed): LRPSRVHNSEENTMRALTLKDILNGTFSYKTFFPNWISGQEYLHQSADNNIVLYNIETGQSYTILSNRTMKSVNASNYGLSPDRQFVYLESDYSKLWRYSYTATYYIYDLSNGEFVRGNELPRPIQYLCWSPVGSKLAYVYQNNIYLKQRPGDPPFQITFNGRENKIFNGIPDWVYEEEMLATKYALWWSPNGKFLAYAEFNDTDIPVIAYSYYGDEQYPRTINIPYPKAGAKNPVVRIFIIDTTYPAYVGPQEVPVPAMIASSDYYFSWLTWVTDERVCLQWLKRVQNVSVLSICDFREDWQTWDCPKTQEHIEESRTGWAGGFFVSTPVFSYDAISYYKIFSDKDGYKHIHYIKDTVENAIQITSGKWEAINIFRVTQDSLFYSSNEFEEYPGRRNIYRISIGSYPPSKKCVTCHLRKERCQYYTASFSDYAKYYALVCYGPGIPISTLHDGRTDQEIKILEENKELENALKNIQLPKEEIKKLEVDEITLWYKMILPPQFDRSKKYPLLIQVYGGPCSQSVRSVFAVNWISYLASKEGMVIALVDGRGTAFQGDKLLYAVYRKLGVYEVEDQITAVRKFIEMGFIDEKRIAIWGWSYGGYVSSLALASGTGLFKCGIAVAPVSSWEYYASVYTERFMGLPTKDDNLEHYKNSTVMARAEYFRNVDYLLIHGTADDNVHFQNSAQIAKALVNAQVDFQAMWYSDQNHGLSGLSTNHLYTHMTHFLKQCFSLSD
Protocol: To determine the binding efficiency and inhibitory ability of NI-206.82C2 against other members of the SB9 oligopeptidase family that have sequence similarity to FAP, indirect ELISA and inhibition assays were performed on active enzyme targets. Active recombinant human enzymes evaluated in this assay include: Fibroblast Activation Protein (FAP; Sino Biologicals, 10464-H07H), Dipeptidyl Peptidase IV (DPPIV, BPS Bioscience 80040), Dipeptidyl Peptidase 8 (DPP8, BPS Bioscience 80080), Dipeptidyl Peptidase 9 (DPP9, BPS Bioscience […]), and Prolyl Oligopeptidase/Prolyl Endopeptidase (POP/PREP, BPS Bioscience 80105). Each recombinant peptidase was expressed with a purification tag, and attached to the 96 well ELISA plate using either a mouse anti-Histidine antibody (CloneTech), or a mouse anti-Glutathione S-transferase (GST, Sino Biologicals, 111213-MM02) tag antibody. Each enzyme was validated to bind and remained active on the ELISA plate using enzyme specific fluorogenic substrates. H-Gly-Pro-AMC (ATT Bioquest, 13450) was used to validate the presence and activity of DPP4, DPP9, and DPP8. […] Following a washing step, bound antibody was detected using 3,3′,5,5′-Tetramethylbenzidine (TMB) substrate. The reaction was stopped after 10 minutes by adding 2N H2SO4 and the resulting change in optical density was quantified using an ELISA plate reader at […] absorbance (FIG. 7 B).

[2] = test system: carotid artery photochemical injury-induced thrombosis; experiment: Carotid artery photochemical injury-induced thrombosis model; format: in vivo, mouse; settings: 95% confidence interval=0.01-0.16, p<0.0001
Protocol: The carotid artery photochemical injury-induced thrombosis model begins with anesthesia by intraperitoneal injection of sodium pentobarbital (87 mg/kg body weight). After slight tail warming (using warm water) rose bengal (10 mg/mL in PBS) is injected into the tail vein in a volume of 0.12 mL at a concentration of 50 mg/kg. Mice will then be secured in a supine position (with the head pointing towards the operator) and placed on a heating pad (rectal temperature will be monitored) under a dissecting microscope. Following a (2.5-3 cm) midline cervical incision and a small incision of the larynx to provide a tracheostoma, by blunt preparation the right common carotid artery is exposed and cleared of connective tissue. A surgical stitch is employed to fix the stemocleidomastoid muscle aside to the right and increase access area to the right carotid artery. Care must be taken to avoid excessive vessel manipulation during procedures. […] Flow will be measured during these 60 minutes and for further 60 minutes (max time elapse 120 minutes) or until occlusion occurs. […]
Mice will be placed on a heating pad, to avoid a drop of body temperature. Heart rate (probe measuring the blood flow will also measure the heart rate) will be monitored during the surgery. […]

B1: NI-206.82C2: recombinant human memory B cell-derived monoclonal anti-FAP IgG1 antibody, variable regions in FIG. 1A, FAP inhibitory (antibody, V domains shown)
VH: QVQLQQSGPGLVKPSQTLSLTCAISGDSVSSNSVTWNWIRQSPSRGLEWLGRTYYRSKWYNDYAVSVKGRITINPDTSKNQFYLQLKSVTPEDAAVYYCARDSSILYGDYWGQGTLVTVSS
VL: QAVLTQPSSLSASPGASASLTCTLPSGINVGTYRIFWFQQKPGSPPQYLLSYKSDSDNHQGSGVPSRFSGSKDASANAGILLISGLQSEDEADYYCMIWHSSAWVFGGGTKLTVL
[1]
  binding to rhFAP: selectively binds
[2]
  Log-rank hazard ratio, arterial occlusion versus 43A11: 0.04
